According to the supplement of paper PMC12764529:
± gives the half width of the 95% confidence interval.

How the values were obtained:
[1] = folding stability dG unfold from trypsin proteolysis; higher = more stable
In short: (§1)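 Unfolding free energy was derived, per protease or combined, by relating Bayesian-fitted K50 values from sequencing counts to a sequence-predicted unfolded-state K50 and a shared folded-state K50. The underlying digests exposed cysteine-free mini-proteins under 80 residues, in a PA-tagged cDNA display construct, to trypsin and chymotrypsin at 11 threefold-diluted concentrations and to a no-protease condition. A filter kept only designs with AlphaFold2 dimer inter-PAE above 15.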

[2] = folding stability dG unfold (combined trypsin and chymotrypsin); higher = more stable
In short: as §1

[3] = folding stability dG unfold from chymotrypsin proteolysis; higher = more stable
In short: as §1

Sequence | folding stability dG unfold [1] [kcal/mol] | folding stability dG unfold [2] [kcal/mol] | folding stability dG unfold [3] [kcal/mol]
SAGGPVETPGPHPLRPVPVVEPKKVVVTYPDLSPEEAAALAAELEAQGATTSFDPATGTLTVTLTGLSAGGS [r16_765_JUSTAS] | 1.12 ± 0.043 | 2.58 ± 0.072 | 3 ± 0.038
SAGGPWVVIKIRTPNKPIEIPIPGFKIENTGDSMTIVFPPDDPDQVLDALEKASPGIKITKIEVVKPSAGGS [r8_490_TrROS] | 0.65 ± 0.06 | 0.575 ± 0.1 | 0.318 ± 0.12
SAGGPYEFWFTITIDYPDLTPKQAVEEARKILRKLGFEITDIPVQVDPDPGWITVMARITIRPPEDASAGGS [r16_287_TrROS] | 3.31 ± 0.063 | 3.58 ± 0.16 | 3.98 ± 0.044
SAGGPYYEWEIKLPDNKTISITMRRNPENGRPQHTVTIHDPEKGKPVKEHPFDSPEEAEELIEEGLLSAGGS [r8_450_TrROS] | -0.0517 ± 0.16 | 0.287 ± 0.35 | 0.445 ± 0.21
SAGGRAEEFATFLAELLRALLPPGEKVRATAVVTPEGVVVRVEHPLGFVAEALVKGDKLVRLELRPVSAGGS [r8_287_TrMRF] | 3.17 ± 0.13 | 3.6 ± 0.11 | 3.82 ± 0.09
SAGGRAVLLATFTTPDGSLVLVYEDPATGRVLVVSFDPSTGRVSVLRLRRVPNTGDLFIEDRATFPLSSAGG [r19_249_TrMRF] | 3.51 ± 0.059 | 3.97 ± 0.12 | 4.36 ± 0.12
SAGGRIEVRPLEGSGAVLVRILDPELRKKLEEKFPDVTEILFPVEGAEDIPLEELRDRAIKEIEELIDSAGG [r19_298_TrMRF] | 1.4 ± 0.051 | 0.956 ± 0.059 | 0.187 ± 0.056
SAGGRKITINWNPNSGEIKVKIIWPDGEKEELPIPVPEGHDSPRQFADELKDNAQERFGEPVKIEITSAGGS [r8_166_TrROS] | -0.223 ± 0.15 | -0.492 ± 0.4 | -0.793 ± 0.21
SAGGRLVRIKVDIYSPGDGEPHEFEFLLHVDANGSVEIYFPNGKRIRIPPNMKVKIKDIEVLDPDQISAGGS [r16_223_TrROS] | 2.56 ± 0.089 | 3.17 ± 0.14 | 3.45 ± 0.11
SAGGRVRLEEVEILPPLEDPEDNPDRPLLLLRVRARVEYDTPEGPREEERELVLVVSPERLEEALEALSAGG [r13_149_TrMRF] | 0.794 ± 0.075 | 1.37 ± 0.16 | 1.62 ± 0.13
SAGGRYYFVRIEIYNPNNGRPFDIMIPFPGMPAEQVKEQVKEIADELAKQHGMDVKVKVEIQPLPPDSAGGS [r8_185_TrROS] | 1.73 ± 0.092 | 1.95 ± 0.17 | 2.06 ± 0.07
SAGGSAAMVPPEELAERLAEELAAKEGREVTEVTVEVLDPERGVVRVTVTFRSPEGLSTRTVVVDLSAGGSA [r15_32_JUSTAS] | 3.24 ± 0.057 | 3.21 ± 0.049 | 3.191 ± 0.026
SAGGSAAPLPPDETEVRVEYRYDPEKGVLVITTTTTRFTPEGGATPLETRPVVVEVTEEEKKKVELSAGGSA [r15_191_JUSTAS] | 1.25 ± 0.046 | 1.17 ± 0.1 | 1.04 ± 0.095
SAGGSAAPVSRVVELEFVLPPELVAEAVDALRKLPGVKASFELAEVLPDGYVRVRVTIEVPDDVDLSAGGSA [r15_441_TrMRF] | 3.46 ± 0.11 | 3.8 ± 0.073 | 3.95 ± 0.073
SAGGSAASVVEKTLSPDGTLFVTIKVDPEKKSVPFSITTPDGTPVTVTLPPNTTKTVRVPLGEAALSAGGSA [r15_336_JUSTAS] | -0.678 ± 0.28 | -0.39 ± 0.15 | -0.553 ± 0.27
SAGGSAAVDLSERPPALPVPLKVEVIPIPETGSSLVLVTHPDGFVLLARVNPEGEVELLSAFSLDDSAGGSA [r15_790_TrMRF] | 1.56 ± 0.066 | 2.51 ± 0.14 | 2.86 ± 0.074
SAGGSAAVTITSVPPDGTIRATATNPTNGETVTITFSPETSPEEAVAAIQKELGGPVPVTAVTPAGSAGGSA [r15_544_JUSTAS] | 0.975 ± 0.033 | 1.42 ± 0.1 | 1.57 ± 0.062
SAGGSADDVKIKVEYERNPENGYGQITVEVEDPDGKDLKVEIMFPNMTPEEMEKQAKDIAKEIAKKSAGGSA [r15_526_TrROS] | -0.526 ± 0.21 | 0.719 ± 0.23 | 1.26 ± 0.19
SAGGSADELVVRLRVRDPRTERPLEIDLPVPASLTPEEAIARAERLAAAFRSLGLETEVEVEPVPRSAGGSA [r15_268_TrMRF] | 1.45 ± 0.035 | 1.73 ± 0.046 | 1.88 ± 0.042
SAGGSADENKKPMYFIMVKIEIKFGGKDHKIEIMIPLDNVEKLAKNIAEELGMEIKDVTVSLYPIDSAGGSA [r15_535_TrROS] | 2.79 ± 0.13 | 3.77 ± 0.15 | 4.18 ± 0.12
SAGGSADNIEFKFPGIEEVTVWPDKIMFKLPNGYYYVITINNIDEIEIIEVIPPVPPPPPEDPDDKSAGGSA [r15_393_TrROS] | 2.38 ± 0.39 | 2.4 ± 0.34 | 2.29 ± 0.11

Sequence | folding stability dG unfold [1] [kcal/mol] | folding stability dG unfold [2] [kcal/mol] | folding stability dG unfold [3] [kcal/mol]
SAGGSADSVTFTDPNVEEQIVIPPYVIFKYPDGSVRIIAFDDGDKAEILEEIPFVPPLEPLHPDLESAGGSA [r15_393_TrMRF] | 0.84 ± 0.03 | 1.06 ± 0.17 | 1.11 ± 0.076
SAGGSADYVFVRIEVRDPKNKQPMSIMIPVPPDMTPDEAIEEAEMIANTFKEKGLEITVEVEPMPPSAGGSA [r15_268_TrROS] | 1.44 ± 0.24 | 1.45 ± 0.22 | 1.56 ± 0.13
SAGGSAEEAEELARRLAAELQAETGLEVTVEVRYDEETDTVVIRMTVRDRATGEERTLELTLRLPDSAGGSA [r15_464_TrROS_Hall] | 3.04 ± 0.063 | 3.51 ± 0.059 | 3.72 ± 0.052
SAGGSAEEEVVETEVVYDPETKELHVRTKVFKPKPEITIEVDMSLEEVKALLEELTGRKIDRVEIKSAGGSA [r15_101_TrROS_Hall] | 0.433 ± 0.035 | 1.34 ± 0.084 | 1.68 ± 0.05
SAGGSAEIAEKNGFKITVELHRYNDYIMVEIEIRWPGGQEFTVTIMIKIKIVPPKPPVDPNDPDNNSAGGSA [r15_843_TrROS] | 4.47 ± 0.61 | 4.48 ± 0.51 | 4.47 ± 0.12
SAGGSAEIEGLEFEIVEVTEVRVLPDGTVEITLRVRLPDGSYLRITITVSPDGTVTIDIELLPADESAGGSA [r15_559_TrROS_Hall] | 4.51 ± 0.21 | 4.48 ± 0.18 | 4.18 ± 0.1
SAGGSAEIEITVTVPPEMTEEEIKEQLEAELQRLTGEKVEIVDIRVEEVNGELTVTVKIKIEPAPPSAGGSA [r15_105_TrROS_Hall] | 3.04 ± 0.28 | 2.85 ± 0.3 | 2.71 ± 0.2
SAGGSAEIELPEGAKVEVTEVEVDGELYLRMKVVDEETGEVFVMEMRMRPDGEMEMEVKKIPKEELSAGGSA [r15_986_TrROS_Hall] | 1.3 ± 0.19 | 1.85 ± 0.27 | 2.2 ± 0.34
SAGGSAEIEVTVYYDPETGEILVLINFPDETKFEVAVEEFKKLFEKVEAVKLPDGSVLVRSPLKDASAGGSA [r15_1057_TrMRF] | 1.65 ± 0.12 | 1.59 ± 0.12 | 1.7 ± 0.071
SAGGSAEIWIWMPYDMIESLAKKAGDPNVKVEPVEPPDDNPGEPYWFKITLKDNGKPKREIEFWFPSAGGSA [r15_428_TrROS] | 1.34 ± 0.031 | 2.23 ± 0.15 | 2.67 ± 0.045
SAGGSAELAKALGLKVTVEVEEEDGYLTVKVTVTGPNGEEKTFTMVIKIEPLPPPKKVKKGDKKNKSAGGSA [r15_843_TrROS_Hall] | 2.44 ± 0.26 | 3.62 ± 0.21 | 3.74 ± 0.13
SAGGSAEPRPVVVVFEGTEEEVEELVQKVRDEGFAIDFKVEPLPDPRYYRATVIVRDPDGSWTAKLSAGGSA [r15_177_TrMRF] | 2.07 ± 0.046 | 2.12 ± 0.04 | 2.11 ± 0.041
SAGGSAETAIDLGPPNTTGVLEIEYFDENGNTRRATATFDPNPATISFNEPVEIPPNARIEIKPTSSAGGSA [r15_198_TrMRF] | -0.405 ± 0.21 | 0.545 ± 0.14 | 0.857 ± 0.064
SAGGSAETITVMIPPNFLKKLKDQGIKIPPGYPWITITVTYNPDGKIKIKVQIQPMPPVSPEDMKKSAGGSA [r15_322_TrROS] | 1.44 ± 0.091 | 2.29 ± 0.34 | 2.72 ± 0.3
SAGGSAETLVITLPPELEGLSEEELLALLKALLPPGAEITEIRVERLPDGSLRVTVTVRVPPPEEPSAGGSA [r15_451_TrROS_Hall] | 3.33 ± 0.24 | 2.65 ± 0.15 | 2.18 ± 0.061
SAGGSAEVRVVAEPLPDDYLLVLVEFDSPEVLPEALEAIPGVVEVRAYRFLEEGRPRYRVLALVPASAGGSA [r15_344_TrMRF] | 1.4 ± 0.024 | 1.8 ± 0.06 | 2.02 ± 0.059
SAGGSAEVVEREEYFEEKLPNGEKVKVRRIVTEITPIPGLPGYRVEYTVTVEIGDEWETYPLEVAESAGGSA [r15_465_JUSTAS] | 1.53 ± 0.08 | 1.61 ± 0.064 | 1.51 ± 0.026
SAGGSAEVYKVKIKIERVLPNGEKVEEEITIEVEGMSEEELLALARELAAEPGVRIKEIEIEKLPPSAGGSA [r15_550_TrROS_Hall] | 4.82 ± 0.24 | 4.65 ± 0.38 | 4.54 ± 0.19
SAGGSAFEEVKKKYPNAKWEKIGDEGDTAVYRLTFPGGEKILITVPTLPETDEPVVEVTYVPKGEESAGGSA [r15_547_JUSTAS] | 2.71 ± 0.093 | 2.82 ± 0.059 | 2.842 ± 0.017
SAGGSAFKLTFKNMKIESKMPNPDGQKMIRIEWPDGLSIMIHPPNAIWIMPKDDPEMPPGDMVPIDSAGGSA [r15_692_TrROS] | 0.695 ± 0.25 | 0.953 ± 0.28 | 0.782 ± 0.28
SAGGSAFPTIAESPGVVKIEPLPDGTIKITFNTSEEAKEKIIEELKKLGNFNVEEDPEKPVLIVKKSAGGSA [r15_554_JUSTAS] | 1.7 ± 0.087 | 2.6 ± 0.098 | 2.95 ± 0.059
